Source: patent US20160068605A1
Like-named read-outs stand apart in the source and are kept apart here.

Tests used:
[1] = target: IL3RA-PK (CD123 tagged with ProLink) in HEK293 IL3RA-PK/CSF2RB-EA cells (UniProt P26951)
[2] = target: IL3RA-PK (CD123 tagged with ProLink) in HEK293 IL3RA-PK/CSF2RB-EA cells (UniProt P26951); remark: listed apart in the source
[3] = target: cell-surface CD3 epsilon on primary cynomolgus T cells (cynomolgus monkey) (UniProt Q95LI5); experiment: saturation binding by flow cytometry on cynomolgus monkey T cells
Chain of cell-surface CD3 epsilon on primary cynomolgus T cells (cynomolgus monkey) (Q95LI5 22-198): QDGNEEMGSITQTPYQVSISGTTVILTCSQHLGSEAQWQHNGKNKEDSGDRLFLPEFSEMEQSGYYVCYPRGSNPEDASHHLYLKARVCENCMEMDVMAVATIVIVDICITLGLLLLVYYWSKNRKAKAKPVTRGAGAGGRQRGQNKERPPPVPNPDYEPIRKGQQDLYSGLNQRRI

[4] = target: cell-surface CD3 epsilon on primary human T cells (human) (UniProt P07766); experiment: saturation binding by flow cytometry on primary human T cells (Donor 10006)
Chain of cell-surface CD3 epsilon on primary human T cells (human) (P07766 23-207): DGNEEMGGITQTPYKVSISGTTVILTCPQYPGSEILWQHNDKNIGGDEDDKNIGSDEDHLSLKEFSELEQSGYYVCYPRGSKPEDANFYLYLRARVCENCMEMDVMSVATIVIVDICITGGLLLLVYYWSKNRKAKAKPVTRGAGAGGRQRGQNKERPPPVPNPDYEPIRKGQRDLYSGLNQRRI

Substance	EC50 (read off the curve): CD123/CD131 heteromerization (RLU) [1]	EC50 (read off the curve): CD123/CD131 heteromerization (RLU) [2]	Antigen binding sites/cell [3]	Kd [3]	Ab binding sites/cell [4]	Kd [4]
IL-3 (from UniProt P08700) (ligand)	3 ng/mL	6 ng/mL				
SP34-2 (antibody)			55000 sites/cell	1.4 nM	60000 sites/cell	4.2 nM
